Results on five proteins are retold here after patent publication US20120237496.

One series addresses T1, Peptide-5 (not fully specified).
T1 chain: CDRVYIHPFHLK

Another series addresses T2, Peptide-3.
T2 chain: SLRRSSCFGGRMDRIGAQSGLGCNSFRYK

The next series deals with T3, Peptide-6a.
T3 chain: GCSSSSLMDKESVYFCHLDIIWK

The target of another series is T4, Peptide-8 (not fully specified).
T4 chain: CQLYENKPRRPYILK

Another series deals with T5, Peptide-13 (not fully specified).
T5 chain: CRPPGFSPFRK

Another series deals with T6, Peptide-6b.
T6 chain: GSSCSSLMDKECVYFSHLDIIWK

B1: C3 (protein)
chain: YPYDVPDYAYPYDVPDYAYPYDVPDYAGSYDDGICKSSDCIKSAARLIQNMDATTEPCTDFFKYACGGWLKRNVIPETSSRYGNFDILRDELEVVLKDVLQEPKTEDIVAVQKAKALYRSCINESAIDSRGGEPLLKLLPDIYGWPVATENWEQKYGASWTAEKAIAQLNSKYGKKVLINLFVGTDDKNSVNHVIHIDQPRLGLPRGDYYECTGIYKEACTAYVDLMISVARLIRQEERLPIDENQLALEMNKVMELEKEIANATAKPEDRNDPMLLYNKMTLAQIQNNFSLEINGKPFSWLNFTNEIMSTVNISITNEEDVVVYAPEYLTKLKPILTKYSARDLQNLMSWRFIMDLVSSLSRTYKESRNAFRKALYVTTSETATWRRCANYVNGNMENAVGRLYVEAAFAGESKHVVEDLIAQIREVFIQTLDDLTWMDAETKKRAEEKALAIKERIGYPDDIVSNDNKLNNEYLELNYKEDEYFENIIQNLKFSQSKQLKKLREKVDKDEWISGAAVVNAFYSSGRNQIVFPAGILQPPFFSAQQSNSLNYGGIGMVIGHEITHGFFDNGRNPNKDDDLVDWWTQQSASNFKEQSQCMVYQYGNFSWDLAGGQHLNGINTLGENIADNGGLGQAYRAYQNYIKKNGEEKLLPGLDLNHKQLFFLNFAQVWCGTYRPEYAVNSIKTDVHSPKNFRIIGTLQNSAEFSEAFHCRKNSYMNPEKKCRVW
Consider B1, for which the kapp ratio vs G399V/G714K (B1) with Peptide-2 is 0.81 fold; in the series with Peptide-5, 0.15 fold; with Peptide-3, 0.24 fold; with Peptide-4, 0.79 fold; with Peptide-6a, 0.18 fold; with Peptide-7, 0.64 fold. Further, the kapp ratio vs G399V/G714K (B1) in the series with Peptide-8 stood at 0.37 fold; with Peptide-13 it was 0.85 fold; with Peptide-1, 0.86 fold; with Peptide-6b, 0.09 fold.

B2: C4 (protein)
chain: YPYDVPDYAYPYDVPDYAYPYDVPDYAGSYDDGICKSSDCIKSAARLIQNMDATTEPCTDFFKYACGGWLKRNVIPETSSRYGNFDILRDELEVVLKDVLQEPKTEDIVAVQKAKALYRSCINESAIDSRGGEPLLKLLPDIYGWPVATENWEQKYGASWTAEKAIAQLNSKYGKKVLINLFVGTDDKNSVNHVIHIDQPRLGLPRGDYYECTGIYKEACTAYVDFMISVARLIRQEERLPIDENQLALEMNKVMELEKEIANATAKPEDRNDPMLLYNKMTLAQIQNNFSLEINGKPFSWLNFTNEIMSTVNISITNEEDVVVYAPEYLTKLKPILTKYSARDLQNLMSWRFIMDLVSSLSRTYKESRNAFRKALYVTTSETATWRRCANYVNGNMMNAVGRLYVEAAFAGESKHVVEDLIAQIREVFIQTLDDLTWMDAETKKRAEEKALAIKERIGYPDDIVSNDNKLNNEYLELNYKEDEYFENIIQNLKFSQSKQLKKLREKVDKDEWISGAAVVNAFYSSGRNQIVFPAGILQPPFFSAQQSNSLNYGGIGMVIGHEITHGFFDNVRNFNKDVDLVDWWTQQSASNFKEQSQCMVYQYGNFSWDLAGGQHLNGINTLGENIADNGGLGQAYRAYQNYIKKNGEEKLLPGLDLNHKQLFFLNFAQVWCGTYRPEYAVNSIKTDVHSPKNFRIIGTLQNSAEFSEAFHCRKNSYMNPEKKCRVW
Turning to B2, the kapp ratio vs G399V/G714K (B1) stood at 2.43 fold with Peptide-2; 0.27 fold with Peptide-5; 0.24 fold with Peptide-3; 0.44 fold with Peptide-4; 0.37 fold with Peptide-6a; 0.44 fold with Peptide-7. The kapp ratio vs G399V/G714K (B1) is 0.4 fold in the series with Peptide-8, 0.62 fold in the series with Peptide-13, 2.41 fold with Peptide-1 and 0.29 fold in the series with Peptide-6b.

B3: C7 (protein)
chain: YPYDVPDYAYPYDVPDYAYPYDVPDYAGSYDDGICKSSDCIKSAARLIQNMDATTEPCTDFFKYACGGWLKRNVIPETSSRYGNFDILRDELEVVLKDVLQEPKTEDIVAVQKAKALYRSCINESAIDSRGGEPLLKLLPDIYGWPVATENWEQKYGASWTAEKAIAQLNSKYGKKVLINLFVGTDDKNSVNHVIHIDQPRLGLPRGDYYECTGIYKEACTAYVDFMISVARLIRQEERLPIDENQLALEMNKVMELEKEIANATAKPEDRNDPMLLYNKMTLAQIQNNFSLEINGKPFSWLNFTNEIMSTVNISITNEEDVVVYAPEYLTKLKPILTKYSARDLQNLMSWRFIMDLVSSLSRTYKESRNAFRKALYVTTSETATWRRCANYVNGNMENAVGRLYVEAAFAGESKHVVEDLIAQIREVFIQTLDDLTWMDAETKKRAEEKALAIKERIGYPDDIVSNDNKLNNEYLELNYKEDEYFENIIQNLKFSQSKQLKKLREKVDKDEWISGAAVVNAFYSSGRNQIVFPAGILQPPFFSAQQSNSLNYGGIGMVIGHEITHGFFDNVRNFNKDLDLVDWWTQQSASNFKEQSQCMVYQYGNFSWDLAGGQHLNGINTLGENIADNGGLGQAYRAYQNYIKKNGEEKLLPGLDLNHKQLFFLNFAQVWCGTYRPEYAVNSIKTDVHSPKNFRIIGTLQNSAEFSEAFHCRKNSYMNPEKKCRVW
With B3, the kapp ratio vs G399V/G714K (B1) with Peptide-2 worked out at 2.83 fold; in the series with Peptide-5, 0.34 fold; with Peptide-3 it was 0.24 fold; with Peptide-4 it was 0.96 fold; with Peptide-6a, 0.42 fold; in the series with Peptide-7, 0.47 fold. Besides, the kapp ratio vs G399V/G714K (B1) with Peptide-8 came out at 0.46 fold; with Peptide-13, 0.43 fold; with Peptide-1, 2.77 fold; with Peptide-6b, 0.28 fold.

B4: C6 (protein)
chain: YPYDVPDYAYPYDVPDYAYPYDVPDYAGSYDDGICKSSDCIKSAARLIQNMDATTEPCTDFFKYACGGWLKRNVIPETSSRYGNFDILRDELEVVLKDVLQEPKTEDIVAVQKAKALYRSCINESAIDSRGGEPLLKLLPDIYGWPVATENWEQKYGASWTAEKAIAQLNSKYGKKVLINLFVGTDDKNSVNHVIHIDQPRLGLPRGDYYECTGIYKEACTAYVDFMISVARLIRQEERLPIDENQLALEMNKVMELEKEIANATAKPEDRNDPMLLYNKMTLAQIQNNFSLEINGKPFSWLNFTNEIMSTVNISITNEEDVVVYAPEYLTKLKPILTKYSARDLQNLMSWRFIMDLVSSLSRTYKESRNAFRKALYVTTSETATWRRCANYVNGNMMNAVGRLYVEAAFAGESKHVVEDLIAQIREVFIQTLDDLTWMDAETKKRAEEKALAIKERIGYPDDIVSNDNKLNNEYLELNYKEDEYFENIIQNLKFSQSKQLKKLREKVDKDEWISGAAVVNAFYSSGRNQIVFPAGILQPPFFSAQQSNSLNYGGIGMVIGHEITHGFMDNVRNFNKDVDLVDWWTQQSASNFKEQSQCMVYQYGNFSWDLAGGQHLNGINTLGENIADNGGLGQAYRAYQNYIKKNGEEKLLPGLDLNHKQLFFLNFAQVWCGTYRPEYAVNSIKTDVHSPKNFRIIGTLQNSAEFSEAFHCRKNSYMNPEKKCRVW
On to B4, for which the kapp ratio vs G399V/G714K (B1) stood at 2.36 fold in the series with Peptide-2; 0.29 fold in the series with Peptide-5; 0.24 fold with Peptide-3; 1.26 fold in the series with Peptide-4; 0.28 fold with Peptide-6a; 0.61 fold in the series with Peptide-7. Besides, the kapp ratio vs G399V/G714K (B1) with Peptide-8 came out at 0.37 fold; with Peptide-13 it was 0.85 fold; in the series with Peptide-1, 2.35 fold; with Peptide-6b, 0.19 fold.

B5: C5 (protein)
chain: YPYDVPDYAYPYDVPDYAYPYDVPDYAGSYDDGICKSSDCIKSAARLIQNMDATTEPCTDFFKYACGGWLKRNVIPETSSRYGNFDILRDELEVVLKDVLQEPKTEDIVAVQKAKALYRSCINESAIDSRGGEPLLKLLPDIYGWPVATENWEQKYGASWTAEKAIAQLNSKYGKKVLINLFVGTDDKNSVNHVIHIDQPRLGLPRGDYYECTGIYKEACTAYVDFMISVARLIRQEERLPIDENQLALEMNKVMELEKEIANATAKPEDRNDPMLLYNKMTLAQIQNNFSLEINGKPFSWLNFTNEIMSTVNISITNEEDVVVYAPEYLTKLKPILTKYSARDLQNLMSWRFIMDLVSSLSRTYKESRNAFRKALYVTTSETATWRRCANYVNGNMMNAVGRLYVEAAFAGESKHVVEDLIAQIREVFIQTLDDLTWMDAETKKRAEEKALAIKERIGYPDDIVSNDNKLNNEYLELNYKEDEYFENIIQNLKFSQSKQLKKLREKVDKDEWISGAAVVNAFYSSGRNQIVFPAGILQPPFFSAQQSNSLNYGGIGMVIGHEITHGFFDNGRNPNKDDDLVDWWTQQSASNFKEQSQCMVYQYGNFSWDLAGGQHLNGINTLGENIADNGGLGQAYRAYQNYIKKNGEEKLLPGLDLNHKQLFFLNFAQVWCGTYRPEYAVNSIKTDVHSPKNFRIIGTLQNSAEFSEAFHCRKNSYMNPEKKCRVW
With B5, the kapp ratio vs G399V/G714K (B1) with Peptide-2 was 1.92 fold; with Peptide-5, 0.22 fold; in the series with Peptide-3 it was 0.24 fold; with Peptide-4, 0.74 fold; with Peptide-6a it was 0.23 fold; with Peptide-7, 0.72 fold. In addition, the kapp ratio vs G399V/G714K (B1) with Peptide-8 is 0.41 fold; with Peptide-13 it was 0.63 fold; in the series with Peptide-1, 1.95 fold; with Peptide-6b, 0.18 fold.
